Measurements taken from patent US20240261333A1, “NOVEL TARGETS FOR ENHANCING ANTI-TUMOR IMMUNITY” (THE BROAD INSTITUTE, INC., priority 2021, published 2024).

T1: B3GNT2 (Homo sapiens, UniProt Q9NY97)
T1 construct: The respective ORFs of candidate genes [CD274 (NM_014143), MCL1 (NM_021960), JUNB (NM_002229), and B3GNT2 (NM_006577)] were synthesized; expressed in transfected cells; host or cells: A375 melanoma cells (lentiviral ORF overexpression)
T1 sequence (Q9NY97 1-397): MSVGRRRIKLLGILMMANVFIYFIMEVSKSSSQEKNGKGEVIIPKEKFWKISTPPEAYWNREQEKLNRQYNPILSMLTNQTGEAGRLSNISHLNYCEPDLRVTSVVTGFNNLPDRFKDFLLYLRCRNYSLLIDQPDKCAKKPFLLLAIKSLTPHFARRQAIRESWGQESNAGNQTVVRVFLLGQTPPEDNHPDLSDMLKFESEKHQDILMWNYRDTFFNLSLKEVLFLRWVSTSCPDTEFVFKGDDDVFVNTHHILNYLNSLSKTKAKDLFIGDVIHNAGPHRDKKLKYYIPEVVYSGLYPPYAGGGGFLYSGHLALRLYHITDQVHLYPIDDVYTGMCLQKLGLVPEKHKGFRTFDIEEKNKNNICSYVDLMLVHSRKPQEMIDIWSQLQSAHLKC


Molecular target: T1, B3GNT2
Assay: Co-IP of FLAG-tagged B3GNT2 followed by mass spectrometry
Type: cell-based
Parameters: C-term IgG / C-term flag: unit not given here
How it was run: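 Co-purifying proteins were identified by fractionated nano-LC–MS/MS on an Orbitrap Elite, run data-dependent. Beforehand, lysates in 1% Triton X-100/HEPES buffer were incubated overnight at 4° C with anti-FLAG or […] and pulled down on Protein A/G magnetic beads for 4 h. Duplicate biological replicates.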

[1] = Co-IP followed by mass spectrometry of B3GNT2, C-term tag, FLAG pull-down
[2] = Co-IP followed by mass spectrometry of B3GNT2, C-term tag, IgG pull-down
[3] = Co-IP followed by mass spectrometry of B3GNT2, N-term tag, FLAG pull-down
[4] = Co-IP followed by mass spectrometry of B3GNT2, N-term tag, IgG pull-down

Molecule | C-term flag [1] | C-term IgG [2] | N-term FLAG [3] | N-term IgG [4] | C-term flag (Co-IP with FLAG antibody, C-terminally FLAG-tagged B3GNT2, mass spectrometry count, unit not given) | N-term FLAG (Co-IP with FLAG antibody, N-terminally FLAG-tagged B3GNT2, mass spectrometry count, unit not given) | C-term IgG (Co-IP with IgG control antibody, C-terminally FLAG-tagged B3GNT2, mass spectrometry count, unit not given) | N-term IgG (Co-IP with IgG control antibody, N-terminally FLAG-tagged B3GNT2, mass spectrometry count, unit not given)
CSE1L (protein) MELSDANLQTLTEYLKKTLDPDPAIRRPAEKFLESVEGNQNYPLLLLTLLEKSQDNVIKVCASVTFKNYIKRNWRIVEDEPNKICEADRVAIKANIVHLMLSSPEQIQKQLSDAISIIGREDFPQKWPDLLTEMVNRFQSGDFHVINGVLRTAHSLFKRYRHEFKSNELWTEIKLVLDAFALPLTNLFKATIELCSTHANDASALRILFSSLILISKLFYSLNFQDLPEFFEDNMETWMNNFHTLLTLDNKLLQTDLVSNAIQFLASVCERPHYKNLFEDQNTLTSICEKVIVPNMEFRAADEEAFEDNSEEYIRRDLEGSDIDTRRRAACDLVRGLCKFFEGPVTGIFSGYVNSMLQEYAKNPSVNWKHKDAAIYLVTSLASKAQTQKHGITQANELVNLTEFFVNHILPDLKSANVNEFPVLKADGIKYIMIFRNQVPKEHLLVSIPLLINHLQAESIVVHTYAAHALERLFTMRGPNNATLFTAAEIAPFVEILLTNLFKALTLPGSSENEYIMKAIMRSFSLLQEAIIPYIPTLITQLTQKLLAVSKNPSKPHFNHYMFEAICLSIRITCKANPAAVVNFEEALFLVFTEILQNDVQEFIPYVFQVMSLLLETHKNDIPSSYMALFPHLLQPVLWERTGNIPALVRLLQAFLERGSNTIASAAADKIPGLLGVFQKLIASKANDHQGFYLLNSIIEHMPPESVDQYRKQIFILLFQRLQNSKTTKFIKSFLVFINLYCIKYGALALQEIFDGIQPKMFGMVLEKIIIPEIQKVSGNVEKKICAVGITKLLTECPPMMDTEYTKLWTPLLQSLIGLFELPEDDTIPDEEHFIDIEDTPGYQTAFSQLAFAGKKEHDPVGQMVNNPKIHLAQSLHKLSTACPGRVPSMVSTSLNAEALQYLQGYLQAASVTLL | 3 | 0 | 0 | 0 |  |  |  | 
CPSF6 (protein) MADGVDHIDIYADVGEEFNQEAEYGGHDQIDLYDDVISPSANNGDAPEDRDYMDTLPPTVGDDVGKGAAPNVVYTYTGKRIALYIGNLTWWTTDEDLTEAVHSLGVNDILEIKFFENRANGQSKGFALVGVGSEASSKKLMDLLPKRELHGQNPVVTPCNKQFLSQFEMQSRKTTQSGQMSGEGKAGPPGGSSRAAFPQGGRGRGRFPGAVPGGDRFPGPAGPGGPPPPFPGNLIKHLVKGTRPLFLETRIPWHMGHSIEEIPIFGLKAGQTPPRPPLGPPGPPGPPGPPPPGQVLPPPLAGPPNRGDRPPPPVLFPGQPFGQPPLGPLPPGPPPPVPGYGPPPGPPPPQQGPPPPPGPFPPRPPGPLGPPLTLAPPPHLPGPPPGAPPPAPHVNPAFFPPPTNSGMPTSDSRGPPPTDPYGRPPPYDRGDYGPPGREMDTARTPLSEAEFEEIMNRNRAISSSAISRAVSDASAGDYGSAIETLVTAISLIKQSKVSADDRCKVLISSLQDCLHGIESKSYGSGSRRERSRERDHSRSREKSRRHKSRSRDRHDDYYRERSRERERHRDRDRDRDRERDREREYRHR | 35 | 33 | 30 | 28 |  |  |  | 
SERBP1 (protein) PGHLQEGFGCVVTNRFDQLFDDESDPFEVLKAAENKKKEAGGGGVGGPGAKSAAQAAAQTNSNAAGKQLRKESQKDRKNPLPPSVGVVDKKEETQPPVALKKEGIRRVGRRPDQQLQGEGKIIDRRPERRPPRERRFEKPLEEKGEGGEFSVDRPIIDRPIRGRGGLGRGRGGRGRGMGRGDGFDSRGKREFDRHSGSDRSSFSHYSGLKHEDKRGGSGSHNWGTVKDELTESPKYIQKQISYNYSDLDQSNVTEETPEGEEHHPVADTENKENEVEEVKEEGPKEMTLDEWKAIQNKDRAKVEFNIRKPNEGADGQWKKGFVLHKSKSEEAHAEDSVMDHHFRKPANDITSQLEINFGDLGRPGRGGRGGRGGRGRGGRPNRGSRTDKSSASAPDVDDPEAFPALA | 10 | 5 | 0 | 4 |  |  |  | 
TIMP3 (protein) CTCSPSHPQDAFCNSDIVIRAKVVGKKLVKEGPFGTLVYTIKQMKMYRGFTKMPHVQYIHTEASESLCGLKLEVNKYQYLLTGRVYDGKMYTGLCNFVERWDQLTLSQRKGLNYRYHLGCNCKIKSCYYLPCFVTSKNECLWTDMLSNFGYPGYQSKHYACIRQKGGYCSWYRGWAPPDKSIINATDP | 3 | 0 | 0 | 0 |  |  |  | 
HADHB (protein) AAPAVQTKTKKTLAKPNIRNVVVVDGVRTPFLLSGTSYKDLMPHDLARAALTGLLHRTSVPKEVVDYIIFGTVIQEVKTSNVAREAALGAGFSDKTPAHTVTMACISANQAMTTGVGLIASGQCDVIVAGGVELMSDVPIRHSRKMRKLMLDLNKAKSMGQRLSLISKFRFNFLAPELPAVSEFSTSETMGHSADRLAAAFAVSRLEQDEYALRSHSLAKKAQDEGLLSDVVPFKVPGKDTVTKDNGIRPSSLEQMAKLKPAFIKPYGTVTAANSSFLTDGASAMLIMAEEKALAMGYKPKAYLRDFMYVSQDPKDQLLLGPTYATPKVLEKAGLTMNDIDAFEFHEAFSGQILANFKAMDSDWFAENYMGRKTKVGLPPLEKFNNWGGSLSLGHPFGATGCRLVMAAANRLRKEGGQYGLVAACAAGGQGHAMIVEAYPK | 3 | 0 | 0 | 0 |  |  |  | 
CHCHD6 (protein) GSTESSEGRRVSFGVDEEERVRVLQGVRLSENVVNRMKEPSSPPPAPTSSTFGLQDGNLRAPHKESTLPRSGSSGGQQPSGMKEGVKRYEQEHAAIQDKLFQVAKREREAATKHSKASLPTGEGSISHEEQKSVRLARELESREAELRRRDTFYKEQLERIERKNAEMYKLSSEQFHEAASKMESTIKPRRVEPVCSGLQAQILHCYRDRPHEVLLCSDLVKAYQRCVSAAHKG |  |  |  |  | 3 | 0 | 0 | 0
SRP14 (protein) VLLESEQFLTELTRLFQKCRTSGSVYITLKKYDGRTKPIPKKGTVEGFEPADNKCLLRATDGKKKISTVVSSKEVNKFQMAYSNLLRANMDGLKKRDKKNKTKKTKAAAAAAAAAPAAAATAPTTAATTAATAAQ | 3 | 0 | 0 | 0 |  |  |  | 
